# Results as given in CN114075291A (THE FIRST AFFILIATED HOSPITAL OF NAVAL MEDICAL UNIV OF …, dated 2022).
# Molecular target: T1, 人PSMA抗原 (前列腺特异性膜抗原, prostrate specific membrane antigen) (human, UniProt Q04609 1-750)
# T1 construct: whole, on cells; it is treated here as the same protein; also called PSMA蛋白
# Experiment: FACS, scFv culture supernatant on 293T-PSMA cells, APC anti 6XHis secondary
# T1 sequence (Q04609 whole entry): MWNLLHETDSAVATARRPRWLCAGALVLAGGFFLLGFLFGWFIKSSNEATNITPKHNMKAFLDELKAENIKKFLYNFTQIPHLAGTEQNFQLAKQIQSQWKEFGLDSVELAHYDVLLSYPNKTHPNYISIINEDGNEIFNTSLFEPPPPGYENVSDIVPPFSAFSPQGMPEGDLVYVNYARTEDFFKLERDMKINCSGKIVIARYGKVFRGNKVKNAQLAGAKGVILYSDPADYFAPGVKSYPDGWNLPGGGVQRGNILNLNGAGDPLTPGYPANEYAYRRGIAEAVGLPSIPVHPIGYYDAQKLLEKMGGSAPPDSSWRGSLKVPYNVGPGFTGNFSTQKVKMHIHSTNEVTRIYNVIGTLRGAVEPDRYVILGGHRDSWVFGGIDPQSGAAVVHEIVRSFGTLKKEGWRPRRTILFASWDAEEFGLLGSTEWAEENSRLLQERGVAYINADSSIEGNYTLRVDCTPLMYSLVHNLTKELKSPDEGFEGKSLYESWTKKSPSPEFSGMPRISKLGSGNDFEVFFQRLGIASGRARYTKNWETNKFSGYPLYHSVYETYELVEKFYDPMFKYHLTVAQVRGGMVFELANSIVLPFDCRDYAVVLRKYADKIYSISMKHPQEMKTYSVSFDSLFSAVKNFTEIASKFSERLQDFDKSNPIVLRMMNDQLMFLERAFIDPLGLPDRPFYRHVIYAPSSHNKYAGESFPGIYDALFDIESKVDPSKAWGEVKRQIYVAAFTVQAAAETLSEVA
binder,measurement,value
"抗PSMA单链抗体1 (scFv, V domains shown, Soluble scFv from a fully human phage library, made in E. coli TG1 and detected with APC anti 6XHis, so it carries a His tag; also called 抗体HTS0101; HTS0101) VH: EVQLVESGGGVVQPGRSLRLSCAASGFTFSSYAMHWVRQAPGKGLEWVAVISYDGSNKYYADSVKGRFTISRDNSKNTLYLQMNSLRAEDTAVYYCARDYPLDDILTFPRVGTLDYWGQGTTVTVSS VL: EIVLTQSPLSLPVTPGEPASISCRSSQSLLHSNGYNYLGWYLQKPGQSPQLLIYLGSNRASGVPDRFSGSGSGTDFTLKISRVEAEDVGVYYCMQALQTGFTFGPGTKVEIK",binding result,binds
